Nine molecules from US20240262879A1 (Boehringer Ingelheim, published 2024) can be followed below.

For test [1], the target named is T1, Interleukin-12 (IL-12) (human, UniProt P29459 23-219; P29460 23-328).
T1 sequence 1: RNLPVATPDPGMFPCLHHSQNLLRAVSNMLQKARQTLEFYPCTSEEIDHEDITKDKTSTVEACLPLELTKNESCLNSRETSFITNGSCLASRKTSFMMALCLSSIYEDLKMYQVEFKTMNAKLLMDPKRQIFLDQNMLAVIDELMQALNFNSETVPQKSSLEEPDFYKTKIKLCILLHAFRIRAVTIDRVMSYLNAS
T1 sequence 2: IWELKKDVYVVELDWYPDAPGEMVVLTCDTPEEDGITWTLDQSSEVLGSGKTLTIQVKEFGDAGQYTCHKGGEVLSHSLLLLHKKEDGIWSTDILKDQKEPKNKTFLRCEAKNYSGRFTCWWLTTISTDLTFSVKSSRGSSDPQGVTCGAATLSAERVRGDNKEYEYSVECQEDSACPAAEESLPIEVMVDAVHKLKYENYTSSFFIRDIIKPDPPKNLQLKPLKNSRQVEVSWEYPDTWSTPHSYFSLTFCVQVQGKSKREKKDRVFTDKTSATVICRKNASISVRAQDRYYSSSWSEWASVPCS
As to the kind of experiment: cell-based or functional assay.

Test [2] addresses T1, Interleukin-12 (IL-12). The test is described as follows: affinity for IL-12; method not stated.
The target in test [3] is collagen present in fibrotic rat livers (rat). The test is described as follows: 24 h incubation with fibrotic rat liver slices, recovered protein by MSD U-PLEX. As to the method: (§1) FIGS. 26A-26B: Precision cut liver slices were prepared from fibrotic rat livers. IL-12 Fc fusion proteins (BI-057 or BI-065; in amounts indicated in figure legends) were added to the slices and incubated for 24 hours (FIG. 26A) or 2 hours followed by 22 h recovery period (FIG. 26B). After 2 h incubation, fusion proteins were thoroughly washed and incubated for another 22 h in medium before harvest. After 24 h, slices were collected, lysed and homogenized. The amount of IL-12 Fc fusion proteins recovered from the slices was determined with the MSD U-PLEX Biomarker Assay using IL-12 Fc fusion proteins as standards.
(§2) Briefly, tissue cores are cut from the fibrotic rat liver using a 5 mm cylindrical motorized tissue coring press (Alabama R&D, MD5000), and 300 μm thick tissue slices are cut using a tissue slicer (Alabama R&D, MD6000). All tissue slices are cultured with a floating culture system (60 rpm) in 12 well plates (Nunc) in a humidified incubator, 95% O₂/5% CO₂, 37° C. in 1.3 mL supplemented William's Medium E (Life Technologies).

The target of test [4] is T2, rat collagen I (rat, UniProt P02454 152-1207; P02466 86-1125).
T2 construct: Bought; also called Rat collagen (Corning)
As to the kind of experiment: ELISA on plates coated with rat collagen I (Corning), detection with anti-human Fc. As to the method:
(§3) Collagen binding properties were further evaluated in ELISA assay. Chimeric IL-12 Fc fusion protein BI-065 or chimeric IL-12 Fc fusion protein containing collagen I TME linker BI-057 were added to collagen I-coated plates. To this end, plates were coated either with rat collagen I (FIG. 25A) or with human skin collagen I (FIG. 25B).
(§4) Briefly, high binding microplates (greiner) are coated over night at 4° C. with rat collagen (Corning) or human collagen (Millipore/R&D) diluted in coating buffer (Invitrogen) with a concentration of 0.005 mg/mL. IL-12 Fc fusion proteins are diluted in PBS+1% BSA and added to collagen precoated plates for 2 hours. The plates are blocked with 1% BSA before addition of proteins to minimize unspecific binding. Next, plates are washed 3× followed by incubation with biotinylated anti-human Fc antibody (Invitrogen). After additional washing step, Streptavidin-HRP are added to the plates. Substrate are added to plates after a washing step and plates are read in ELISA reader (Tecan).
(ELISA stands for enzyme-linked immunosorbent assay.)

Test [5] addresses T3, human collagen type 1 (human, UniProt P02452 162-1218; P08123 80-1119, limits assumed).
T3 construct: Bought or cell-made collagen; also called human collagen I; human collagen (Millipore/R&D)
The test is described as follows: ELISA on plates coated with human collagen I (Millipore/R&D), detection with anti-human Fc. As to the method: as §3, §4

Test [6] addresses collagen present in fibrotic rat livers (rat). The test is described as follows: 2 h incubation, wash and 22 h culture of fibrotic rat liver slices, recovered protein by MSD U-PLEX. Here is the method:
as §1, §2

T2 sequence (P02454 152-1207, chain 1 of 2): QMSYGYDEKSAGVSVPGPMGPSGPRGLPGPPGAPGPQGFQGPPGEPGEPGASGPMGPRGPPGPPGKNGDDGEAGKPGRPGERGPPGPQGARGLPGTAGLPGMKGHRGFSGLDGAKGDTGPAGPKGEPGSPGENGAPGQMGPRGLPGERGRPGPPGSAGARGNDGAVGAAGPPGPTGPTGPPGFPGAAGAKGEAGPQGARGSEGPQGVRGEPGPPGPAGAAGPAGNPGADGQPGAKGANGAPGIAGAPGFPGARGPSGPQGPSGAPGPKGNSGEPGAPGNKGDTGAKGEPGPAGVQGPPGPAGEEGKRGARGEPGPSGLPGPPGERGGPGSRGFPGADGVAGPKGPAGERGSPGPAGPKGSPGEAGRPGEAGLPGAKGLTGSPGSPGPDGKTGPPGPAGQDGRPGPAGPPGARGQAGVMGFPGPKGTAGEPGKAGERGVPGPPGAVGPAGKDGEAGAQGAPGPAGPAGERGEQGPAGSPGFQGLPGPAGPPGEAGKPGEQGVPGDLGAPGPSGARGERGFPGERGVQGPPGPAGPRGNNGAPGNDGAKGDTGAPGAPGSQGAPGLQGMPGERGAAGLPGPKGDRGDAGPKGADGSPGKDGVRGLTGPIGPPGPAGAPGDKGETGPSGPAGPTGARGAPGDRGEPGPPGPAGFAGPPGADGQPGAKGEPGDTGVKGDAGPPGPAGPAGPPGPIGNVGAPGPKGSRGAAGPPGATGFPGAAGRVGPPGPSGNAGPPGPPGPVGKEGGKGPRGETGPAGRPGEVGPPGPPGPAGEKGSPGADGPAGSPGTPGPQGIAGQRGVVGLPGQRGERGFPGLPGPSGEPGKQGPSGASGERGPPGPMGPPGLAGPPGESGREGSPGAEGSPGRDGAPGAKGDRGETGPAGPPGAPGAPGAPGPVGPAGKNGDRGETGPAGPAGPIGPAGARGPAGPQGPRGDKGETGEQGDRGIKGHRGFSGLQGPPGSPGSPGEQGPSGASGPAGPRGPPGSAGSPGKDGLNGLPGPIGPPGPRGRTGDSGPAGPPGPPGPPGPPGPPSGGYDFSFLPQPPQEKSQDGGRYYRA
T2 sequence (P02466 86-1125, chain 2 of 2): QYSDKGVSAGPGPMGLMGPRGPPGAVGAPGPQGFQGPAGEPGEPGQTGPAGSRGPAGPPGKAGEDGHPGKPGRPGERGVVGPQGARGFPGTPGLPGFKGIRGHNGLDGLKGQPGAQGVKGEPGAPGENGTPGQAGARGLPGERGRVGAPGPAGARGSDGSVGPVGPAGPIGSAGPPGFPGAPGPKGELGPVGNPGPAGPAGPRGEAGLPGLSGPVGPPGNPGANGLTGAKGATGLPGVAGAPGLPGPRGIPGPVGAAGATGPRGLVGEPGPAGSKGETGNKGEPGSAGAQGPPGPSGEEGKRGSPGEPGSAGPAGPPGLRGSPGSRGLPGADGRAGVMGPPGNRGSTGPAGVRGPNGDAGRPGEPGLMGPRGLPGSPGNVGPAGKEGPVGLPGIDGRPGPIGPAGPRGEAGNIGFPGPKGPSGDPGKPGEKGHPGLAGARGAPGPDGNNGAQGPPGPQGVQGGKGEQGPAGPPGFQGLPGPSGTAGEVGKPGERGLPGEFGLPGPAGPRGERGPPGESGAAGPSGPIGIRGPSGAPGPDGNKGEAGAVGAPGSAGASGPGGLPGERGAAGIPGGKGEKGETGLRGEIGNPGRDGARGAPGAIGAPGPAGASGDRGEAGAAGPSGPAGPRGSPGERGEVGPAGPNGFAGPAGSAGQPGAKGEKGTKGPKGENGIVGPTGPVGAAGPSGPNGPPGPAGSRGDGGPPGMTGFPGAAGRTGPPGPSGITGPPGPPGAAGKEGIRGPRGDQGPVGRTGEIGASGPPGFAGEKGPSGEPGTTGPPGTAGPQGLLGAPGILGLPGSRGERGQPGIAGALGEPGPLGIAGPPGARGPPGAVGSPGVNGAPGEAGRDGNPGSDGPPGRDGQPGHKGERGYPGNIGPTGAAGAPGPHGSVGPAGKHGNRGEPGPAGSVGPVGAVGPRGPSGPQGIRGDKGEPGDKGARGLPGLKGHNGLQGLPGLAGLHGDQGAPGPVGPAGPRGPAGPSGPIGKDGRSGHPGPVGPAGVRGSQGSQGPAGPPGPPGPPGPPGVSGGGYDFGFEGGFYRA
T3 sequence (P02452 162-1218 limits assumed, chain 1 of 2): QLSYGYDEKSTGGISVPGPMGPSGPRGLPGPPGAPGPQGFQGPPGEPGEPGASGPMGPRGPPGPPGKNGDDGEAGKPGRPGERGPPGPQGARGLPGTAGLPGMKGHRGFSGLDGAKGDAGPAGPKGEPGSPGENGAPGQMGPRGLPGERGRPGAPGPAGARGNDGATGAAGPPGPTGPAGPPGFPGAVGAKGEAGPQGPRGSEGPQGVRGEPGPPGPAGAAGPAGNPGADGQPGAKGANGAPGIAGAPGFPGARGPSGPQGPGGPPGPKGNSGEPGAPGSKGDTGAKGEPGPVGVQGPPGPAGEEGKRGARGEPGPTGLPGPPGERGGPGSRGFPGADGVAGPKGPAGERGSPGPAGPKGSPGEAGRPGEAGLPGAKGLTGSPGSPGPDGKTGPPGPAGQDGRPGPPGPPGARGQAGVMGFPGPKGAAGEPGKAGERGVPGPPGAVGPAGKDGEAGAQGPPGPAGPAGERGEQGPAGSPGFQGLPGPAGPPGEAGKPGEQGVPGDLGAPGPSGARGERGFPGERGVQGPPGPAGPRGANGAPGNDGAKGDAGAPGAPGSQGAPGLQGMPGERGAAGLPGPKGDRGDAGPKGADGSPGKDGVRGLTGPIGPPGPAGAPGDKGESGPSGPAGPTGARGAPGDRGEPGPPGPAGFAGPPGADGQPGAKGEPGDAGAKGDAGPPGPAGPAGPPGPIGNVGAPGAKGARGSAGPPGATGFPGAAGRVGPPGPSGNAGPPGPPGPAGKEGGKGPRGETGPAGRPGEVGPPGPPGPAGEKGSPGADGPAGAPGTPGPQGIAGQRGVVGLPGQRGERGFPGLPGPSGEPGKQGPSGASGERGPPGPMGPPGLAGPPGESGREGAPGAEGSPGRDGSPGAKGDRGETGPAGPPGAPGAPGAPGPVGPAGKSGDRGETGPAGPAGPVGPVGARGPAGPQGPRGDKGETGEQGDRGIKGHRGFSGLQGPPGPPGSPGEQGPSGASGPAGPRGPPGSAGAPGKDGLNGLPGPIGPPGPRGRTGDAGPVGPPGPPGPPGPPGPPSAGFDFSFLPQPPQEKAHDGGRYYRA
T3 sequence (P08123 80-1119 limits assumed, chain 2 of 2): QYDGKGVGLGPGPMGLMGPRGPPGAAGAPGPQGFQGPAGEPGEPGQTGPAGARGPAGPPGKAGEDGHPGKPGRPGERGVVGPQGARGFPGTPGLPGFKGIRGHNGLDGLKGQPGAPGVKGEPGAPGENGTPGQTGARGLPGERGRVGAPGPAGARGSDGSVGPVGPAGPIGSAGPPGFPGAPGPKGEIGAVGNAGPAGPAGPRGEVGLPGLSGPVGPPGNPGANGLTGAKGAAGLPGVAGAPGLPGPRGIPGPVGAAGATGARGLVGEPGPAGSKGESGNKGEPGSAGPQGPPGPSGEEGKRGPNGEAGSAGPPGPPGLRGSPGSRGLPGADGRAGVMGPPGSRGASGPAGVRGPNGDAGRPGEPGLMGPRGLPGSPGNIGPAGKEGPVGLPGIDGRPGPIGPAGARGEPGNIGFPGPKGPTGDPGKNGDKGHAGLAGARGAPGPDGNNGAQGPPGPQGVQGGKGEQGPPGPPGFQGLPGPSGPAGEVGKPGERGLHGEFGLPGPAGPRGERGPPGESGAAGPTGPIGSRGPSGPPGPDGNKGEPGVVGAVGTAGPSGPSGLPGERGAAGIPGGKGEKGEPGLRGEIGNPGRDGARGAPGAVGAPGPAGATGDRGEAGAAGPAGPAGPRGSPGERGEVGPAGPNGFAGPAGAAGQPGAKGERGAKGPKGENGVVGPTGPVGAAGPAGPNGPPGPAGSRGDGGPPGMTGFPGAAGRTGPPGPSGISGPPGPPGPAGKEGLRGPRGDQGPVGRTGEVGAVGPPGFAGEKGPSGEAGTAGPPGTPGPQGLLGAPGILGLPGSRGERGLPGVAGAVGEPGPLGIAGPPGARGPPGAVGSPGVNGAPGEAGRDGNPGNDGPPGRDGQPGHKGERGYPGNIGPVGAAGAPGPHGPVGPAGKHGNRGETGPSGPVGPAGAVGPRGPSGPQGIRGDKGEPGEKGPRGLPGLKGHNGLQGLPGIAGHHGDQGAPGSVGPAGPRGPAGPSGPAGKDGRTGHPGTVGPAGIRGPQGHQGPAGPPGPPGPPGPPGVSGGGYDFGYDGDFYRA

B1: BI-039 (VHH)
VHH: QVQLVESGGGLVQAGGSLRLSCAASGRTFETIAMGWFRQVPGKEREFVAVIRGSGVATYYPDSVKGRFTISKDSAKNTVYLQMNNLKPEDTAVYYCAATTNRFKNTDYTTYDYWGQGTQVTVSS
As usually defined, the IC50 is the concentration needed to halve the response being measured. Low readings indicate higher potency, high ones lower potency. What is called Kd is the constant that tells how readily two partners part at equilibrium. A high value points to lower affinity. Consider B1, for which the “IC50” value in test [1] was 0.61 nM. The molecule also gave a Kd in test [2] of 3.5 nM.

B2: BI-117 (VHH)
VHH: EVQLVESGGGLVQPGGSLRLSCAASGRTFETIAMGWFRQAPGKEREFVAVIRGSGVATYYPESVKGRFTISKDSSKNTVYLQMNSLRAEDTAVYYCAATTNRFKNTDYTTYDYWGQGTQVTVSS
notes: also called 61-Gft-106_D62E
As for B2, it took 0.36 nM to reach half-maximal inhibition in test [1] (IC50). This molecule also had a dissociation constant Kd in test [2] of 3 nM.

B3: BI-063 (VHH)
VHH: EVQLVESGGGLVQPGGSLRLSCAASGRTFETIAMGWFRQAPGKEREFVAVIRGSGVATYYPDSVKGRFTISKDSSKNTVYLQMNSLRAEDTAVYYCAATTNRFKNTDYTTYDYWGQGTQVTVSS
notes: Variant of BI-039; also called 61-Gft-106; BI-063 VHH
As for B3, the “IC50” value in test [1] worked out at 0.89 nM. Besides, the Kd in test [2] was 3.4 nM.

B4: BI-123 (VHH)
VHH: EVQLVESGGGLVQPGGSLRLSCAASGRTFETIAMGWFRQAPGKEREFVAVIRGSGVATSYPESVKGRFTISKDSSKNTVYLQMNSLRAEDTAVYYCAATTNRFKNTDYTTYDYWGQGTQVTVSS
Consider B4, for which the 50% inhibitory concentration (IC50) in test [1] was 10 nM. In test [2], binding was put at a Kd of 30 nM.

B5: BI-048 (VHH)
VHH: EVQLVESGGGLVQPGGSLRLSCAASGRTFETIAMGWFRQAPGKGLEFVAVIRGSGVATYYAESVKGRFTISKDSSKNTVYLQMNSLRAEDTAVYYCAATTNRFKNTDYTTYDYWGQGTQVTVSS
notes: Humanised variant of BI-039, the selected masking domain; also called Mix 13
Consider B5, for which the “IC50” value in test [1] was 0.44 nM. Besides, the affinity in test [2], expressed as Kd, was 3.7 nM.

B6: BI-120 (VHH)
VHH: EVQLVESGGGLVQPGGSLRLSCAASGRTFETIAMGWFRQAPGKEREFVAVIRGSGVATYYPESVKGRFTISKDSSKNTVYLQMNSLRAEDTAVYYCAATTNRFKNTEYTTYDYWGQGTQVTVSS
Take B6: the “IC50” value in test [1] amounted to 2.5 nM. Besides, in test [2], binding was put at a Kd of 4.1 nM.

B7: BI-119 (VHH)
VHH: EVQLVESGGGLVQPGGSLRLSCAASGRTFETIAMGWFRQAPGKEREFVAVIRGSGVATYYPESVKGRFTISKDSSKNTVYLQMNSLRAEDTAVYYCAATTNRFKNRDYTTYDYWGQGTQVTVSS
As to B7, in test [1], the “IC50” value was found to be 2.4 nM. The dissociation constant (Kd) in test [2] was determined as 8.5 nM.

B8: BI-057 (Fc fusion)
chain 1: EPKSSDKTHTCPPCPAPEAAGGPSVFLFPPKPKDTLMISRTPEVTCVVVDVSHEDPEVKFNWYVDGVEVHNAKTKPREEQYNSTYRVVSVLTVLHQDWLNGKEYKCKVSNKALPAPIEKTISKAKGQPREPQVYTLPPSREEMTKNQVSLWCLVKGFYPSDIAVEWESNGQPENNYKTTPPVLDSDGSFFLYSKLTVDKSRWQQGNVFSCSVMHEALHNHYTQKSLSLSPGGGGGSGGGGGPLGVRGGGGGSIWELKKDVYVVELDWYPDAPGEMVVLTCDTPEEDGITWTLDQSSEVLGSGKTLTIQVKEFGDAGQYTCHKGGEVLSHSLLLLHKKEDGIWSTDILKDQKEPKNKTFLRCEAKNYSGRFTCWWLTTISTDLTFSVKSSRGSSDPQGVTCGAATLSAERVRGDNKEYEYSVECQEDSACPAAEESLPIEVMVDAVHKLKYENYTSSFFIRDIIKPDPPKNLQLKPLKNSRQVEVSWEYPDTWSTPHSYFSLTFCVQVQGKSKREKKDRVFTDKTSATVICRKNASISVRAQDRYYSSSWSEWASVPCSGGGGSGGGGSGGGGSRVIPVSGPARCLSQSRNLLKTTDDMVKTAREKLKHYSCTAEDIDHEDITRDQTSTLKTCLPLELHKNESCLATRETSSTTRGSCLPPQKTSLMMTLCLGSIYEDLKMYQTEFQAINAALQNHNHQQIILDKGMLVAIDELMQSLNHNGETLRQKPPVGEADPYRVKMKLCILLHAFSTRVVTINRVMGYLSSAGSGGLRELHLDNN
chain 2: EPKSSDKTHTCPPCPAPEAAGGPSVFLFPPKPKDTLMISRTPEVTCVVVDVSHEDPEVKFNWYVDGVEVHNAKTKPREEQYNSTYRVVSVLTVLHQDWLNGKEYKCKVSNKALPAPIEKTISKAKGQPREPQVYTLPPSREEMTKNQVSLSCAVKGFYPSDIAVEWESNGQPENNYKTTPPVLDSDGSFFLVSKLTVDKSRWQQGNVFSCSVMHEALHNRFTQKSLSLSPGGGGGSGGGGSGGGGSGGGGSGGGGSEVQLVESGGGLVQPGGSLRLSCAASGRTFETIAMGWFRQAPGKGLEFVAVIRGSGVATYYAESVKGRFTISKDSSKNTVYLQMNSLRAEDTAVYYCAATTNRFKNTDYTTYDYWGQGTQVTVSSA
notes: Knob-into-hole heterodimer; human p40, mouse p35; also called chimeric IL-12 Fc fusion protein containing collagen I TME linker
In general, EC50 refers to the concentration that produces a half-maximal response. Low values mean higher potency in that assay, high ones lower potency in that assay. For B8, the “fold decrease in fold recovery from liver slices against BI-065” value in test [3] was more than 10 fold. The EC50 was 26 nM in test [4] and 75 nM in test [5]. The “fold recovery from liver slices against BI-065” value in test [6] came out at 10 fold.

B9: BI-049 (VHH)
VHH: EVQLVESGGGLVQPGGSLRLSCAASGRTFETIAMGWFRQAPGKGLEFVAVIRGSGVATYYAESVKGRFTISKDSSKNTVYLQMNSLRAEDTAVYYCAATTNRFKNREYTTYDYWGQGTQVTVSS
notes: Variant of BI-039, mask of BI-054; also called Mix 15
With B9, it took 5.7 nM to reach half-maximal inhibition in test [1] (IC50). In addition, the Kd in test [2] was 12 nM.
